These results are taken from patent US20160311919A1.

B1: 1.7.3 (antibody, V domains shown)
VH: QVQLQESGPGLVKPSQTLSLTCTVSGGSISSANYYWTWIRQHPGKGLEWIGYIYYSGSTYCNPSLKSRVIISVDTSKNQFSLKLSSVTAADTAVYYCARGYNWNYFDYWGQGTLVTVSS
VL: DIVMTQSPATLSVSPGERATLSCRASQSVSSNLAWYQERPGQAPRLLIYGASTRATGIPARFSGSGSGTEFTLTISSLQSEDFAVYYCQQYNKWPPWTFGQGTKVEIER
B2: 2-17 (hybridoma of Table 6) (antibody, V domains shown)
VH: QLVQSGAEVKKPGASVKVSCKASGYTFTGFYMHWVRQTPGQGLEWMGWINPNSGGTYYVQKFQGRVTMTRDTSISTVYMELSRLRSDDTAVYYCARDGYSSGEDWFDPWGQGTLVTVSS
VL: DIVMTQTPLSLSVTPGQPASISCKSSQSLLHSGGKTYLYWYLQRPGQPPQLLIYEVSNRFSGVPDRFSGSGSGTDFTLKISRVEAEDVGVYYCMQSIHLPLTFGGGTKVEIKR
B3: 2-16 (hybridoma of Table 6) (antibody, V domains shown)
VH: QVQLVESGGGLVKPGGSLRLSCAASGFTFSDYYMTWIRQAPGKGLEWVSYISISGSITHYADSVKGRFTMSRDNAKNSLYLQMNSLRAEDTAVYYCARDGAAAGTDAFDIWGHGTKVTVSS
VL: EIVMTQSPATLSVSPGDRATLSCRASQNVSSNLAWYQQKPGQAPRLLIFGASTRATGIPARFSGSGSGTEFTLTISSLQSEDFAVYYCQQYHYWPTFGPGTKVDIKR
B4: 2-7 (hybridoma of Table 6) (antibody, V domains shown)
VH: QVQLEQSGGGVVQPGRSLRLSCAASGFTFNNYGMHWVRQAPGKGLEWVAVIWYDGSNKYYADSVKGRFTISRDNSKNTLYLQMNSLRAEDTAVYYCAKDEEYYYVSGLDYWGQGTLVTVSS
VL: LTQSPSSLSASVRDRVTITCRASQDISNYLAWYQQKPGKVPNLLIYAASTLQSGVPSRFSGSGSGTDFTLTISSLQPEDVATYYCQKYNSAPLTFGGGTKVEIKR
B5: 2-15 (hybridoma of Table 6) (antibody, V domains shown)
VH: QVQLVESGGGVVQPGRSLRLSCAASGFTFSNYGIHWVRQAPGKGLEWVAVIWFDGRNKYYADSVKGRFTISRDNSKNTLYLQMNSLRAEDAAVYYCARDPFDYGDSFFDYWGQGTLVTVSS
VL: B4 VL
B6: Mab1.2.2 (antibody, human IgG2, V domains shown)
VH: ITLKESGPTLVKPTQTLTLTCTFSGFSLSAGGVGVGWIRQPPGKALEWLALIYWNDDKRYSPSLRSRLTITKDTSKNQVVLTITNMDPVDTATYYCAHSHYDYDWGSYFDYWGQGTLVTVSS
VL: DIVMTQTPLSLPVTPGEPASISCRSSQSLLDSDDGNTYLDWYLQKPGQSPQLLIYTLSYRASGVPDRFSGSGSGTDFTLNISRVEAEDVGVYYCMQRIEFPITFGQGTRLEIKR
B7: 2-22 (hybridoma of Table 6) (antibody, V domains shown)
VH: QVQLEQSGPGLVKPSQNLSLTCTVSGGSISSGGYFWSWIRQHPGKGLEWIGYIYYSGNTYYNPSLKSRVTISVDTSKNQFSLKLSSVTAADTAVYYCARDYYYDTSGFSYRYDWYYGMDVWGQGTTVTVSS
VL: DIQLTQSPSSLSASVGDRVTITCRASQGIRNDLGWYQQKPGKAPKRLIYAASSLQNGVPSRFSGSGSGTEFTLTISSLQPEDFATYYCLQHNTYPAFGQGTKVEIKR
B8: Mab1.7.1 (antibody, human IgG2, V domains shown)
VH: B1 VH
VL: B1 VL
B9: Mab1.10.2 (antibody, human IgG2, V domains shown)
VH: QVQLQESGPGLVKPSETLSLTCTVSGDSISNYYWSWIRQPPGKGLEWIGYFYYSGSTNYNPSLKSRVTISVDTSKNQFSLKLSSVTAADTAVYYCARDRGWADYWGQGTLVTVSS
VL: EIVLTQSPGTLSLSPGERATLSCRTSQSISSSYLAWYQQKPGQVPRLLIYGASSRATGIPDRFSGSGSGTDFTLTISRLEPEDFAVYYCQQYGSSITFGQGTRLEIKR
B10: GPNMB antibody (1.10.1) (antibody, V domains shown)
VH: B9 VH
VL: B9 VL

The first experiment deals with GPNMB-V5His (recombinant human GPNMB extracellular domain with C-terminal V5-His tag) (human) (UniProt Q14956). Kind of experiment: ELISA, coated GPNMB, Ab 333 ng/mL.
Take B1: the Avg OD stood at 0.76 OD.

In the case of B2, the Avg OD is 0.01 OD.

With B3, the Avg OD stood at 0.068 OD.

B4: the Avg OD was 0.68 OD.

Take B5: the Avg OD was found to be 0.578 OD.

B6: the Avg OD stood at 0.356 OD.

With B7, the Avg OD is 0.538 OD.

Another experiment shares this target. The experiment can be described thus: ELISA, coated GPNMB, Ab 37 ng/mL.
Regarding B1, the Avg OD was determined as 0.239 OD.

Take B2: the Avg OD was 0.008 OD.

B3: the Avg OD is 0.017 OD.

With B4, the Avg OD was 0.308 OD.

Regarding B5, the Avg OD came out at 0.246 OD.

Turning to B6, the Avg OD came to 0.094 OD.

Turning to B7, the Avg OD came to 0.171 OD.

The target is the same in another experiment. The experiment can be described thus: ELISA, coated GPNMB, Ab 12.3 ng/mL.
With B1, the Avg OD worked out at 0.094 OD.

Take B2: the Avg OD was found to be 0.011 OD.

As to B3, the Avg OD came to 0.011 OD.

With B4, the Avg OD was found to be 0.156 OD.

On to B5, for which the Avg OD came out at 0.127 OD.

Regarding B6, the Avg OD is 0.049 OD.

As for B7, the Avg OD stood at 0.068 OD.

The next experiment has the same target. The experiment can be described thus: SPR (Biacore), mAb on protein A, GPNMB 880 nM.
For the molecule B1, the Kd worked out at 121 nM, the koff worked out at 0.00117 s⁻¹ and the kon came to 9650 M⁻¹ s⁻¹.

Take B8: the Kd came out at 122 nM, the koff came to 0.00144 s⁻¹ and the kon is 11800 M⁻¹ s⁻¹.

For B9, the Kd was 118 nM, the koff was 0.000466 s⁻¹ and the kon was found to be 3960 M⁻¹ s⁻¹.

Take B10: the Kd was 209 nM, the koff was determined as 0.000885 s⁻¹ and the kon was found to be 4240 M⁻¹ s⁻¹.

With B6, the Kd turned out to be 96 nM, the koff was found to be 0.00089 s⁻¹ and the kon is 9260 M⁻¹ s⁻¹.

The next experiment shares this target. Kind of experiment: ELISA, coated GPNMB, Ab 3 ug/mL.
Consider B1, for which the Avg OD came to 1 OD.

As to B2, the Avg OD was determined as 0.053 OD.

Regarding B3, the Avg OD was 0.359 OD.

For the molecule B4, the Avg OD came to 0.827 OD.

Turning to B5, the Avg OD was determined as 0.601 OD.

Consider B6, for which the Avg OD turned out to be 0.763 OD.

Turning to B7, the Avg OD was determined as 0.714 OD.

For the next experiment the target is unchanged. The experiment can be described thus: ELISA, coated GPNMB, Ab 111 ng/mL.
B1: the Avg OD turned out to be 0.451 OD.

As to B2, the Avg OD stood at 0.009 OD.

As for B3, the Avg OD is 0.032 OD.

In the case of B4, the Avg OD is 0.494 OD.

Consider B5, for which the Avg OD came to 0.395 OD.

With B6, the Avg OD was 0.199 OD.

Consider B7, for which the Avg OD amounted to 0.355 OD.

For another experiment the target is unchanged. The experiment can be described thus: ELISA, coated GPNMB, Ab 1 ug/mL.
Take B1: the Avg OD turned out to be 0.871 OD.

Take B2: the Avg OD amounted to 0.019 OD.

For B3, the Avg OD is 0.173 OD.

For B4, the Avg OD is 0.719 OD.

In the case of B5, the Avg OD was 0.568 OD.

For B6, the Avg OD came to 0.499 OD.

In the case of B7, the Avg OD turned out to be 0.707 OD.
